B1: mAb10915 (antibody, V domains shown)
VH: EVQLVESGGGLVQPGGSLRLSCAASGFTVSSNYMNWVRQAPGKGLEWVSVIYSGGSTFYADSVKGRFTISRHNSKNTLYLQMNSLRPEDTAVYYCARDLGGYFDYWGQGTLVTVSS
VL: not shown
B2: mAb10921 (antibody, V domains shown)
VH: EVQLVESGGGLVQPGGSLRLSCAASGITVSSNYMSWVRQAPGKGLEWVSVIYSGGSTFYADSVKGRFTISRHNSKNTLYLQMNSLRAEDTAVYYCARERNFDAFDIWGQGTMVTVSS
VL: DIQMTQSPSSVSASVGDRVTITCRASQGISSWLAWYQQKPGKAPKLLIYAASSLQSGVPSRFSGSGSGTDFTLTISSLQPEDFATYYCQQANSFPLFTFGPGTKVDIKR
B3: mAb10913 (antibody, V domains shown)
VH: EVQLVESGGGLVQPGGSLRLSCAASGFTFRNYEMNWVRQAPGKGLEWVSYITSSGSTMYYADSVKGRFTISRDNAKNSLYLQMNSLRAEDTAVYYCARDGFYYYYAMDVWGQGTTVTVSS
VL: QSVLTQPPSVSAAPGQKVTISCSGSSSNIGNNYVSWYQQLPGTAPKLLIYDNNKRPSGIPDRFSGSKSGTSATLGITGLQTGDEADYYCGTWDSSLSVGRVFGTGTKVTVLG
B4: mAb10930 (antibody, V domains shown)
VH: EVQLVESGGGLVQPGRSLRLSCAASGFTFDDYAMYWVRQAPGKGLEWVSGISWNSGSIGYADSVKGRFTISRDNAKNSLYLQMNSLRAADTALYYCAKDKDWNSRGYYYYGMDVWGQGTTVTVSS
VL: not shown
B5: mAb10920 (antibody, V domains shown)
VH: QVQLVESGGGVVQPGRSLRLSCAASGFTFSYYGMHWVRQAPGKGLEWVAVIWYDGSNKFYADSVKGRFTISRDNSKNTLYLQMNSLRAEDTAVYYCAAARPGYYYGMDVWGQGTTVTVSS
VL: DIQMTQSPSSLSASVGDRVTITCRASQGISNYLAWFQQKPGKAPNSLIYAASSLQRGVPSKFSGSGSGTDFTLTISSLQPEDFATYYCQQYNSYPRTFGQGTKVEIKR
B6: mAb10914 (antibody, V domains shown)
VH: EVQLVESGGGLVQPGGSLRLSCAASGLIVSRNYMIWVRQAPGKGLEWVSVIYSGGSTFYADSVKGRFTISRHNSKNTLYLQMNSLRAEDTAVYYCARDLGTGGMDVWGQGTTVTVSS
VL: DIQLTQSPSFLSASVGDRVTITCWASQGISSYLAWYQQKPGKAPKLLIYAASTLQSGVPSRFSGSGSGTEFTLTISSLQPEDFATYYCQQLNSYPLTFGGGTKVEIKR
B7: mAb10923 (antibody, V domains shown)
VH: QVQLVQSGAEVKKPGASVKVSCKASGYTFINYYIHWVRQAPGQGLEWMGWINPNSGGTNYAQKFQGRVTMTRDTSISTAYMELSRLRSDDTAVYYCAIITIFGVVTWFDPWGQGTLVTVSS
VL: not shown
B8: mAb11006 (antibody, V domains shown)
VH: EVQLVESGGGLVQPGGSLRLSCAASGFIVSRNYMSWVRQAPGKGLEWVSVIYSGGSTFYADSVKGRFTISRHNSKNTLYLQMNSLKAEDTAVYYCARELRGYFDYWGQGTLVTVSS
VL: DIQLTQSPSFLSASVGDRVTITCWASQGISSYLAWYQQKPGKAPKLLIYAASTLQSGVPSRFSGSGSGTEFTLTISSLQPEDFATYYCQLLNSYPYTFGQGTKLEIK
B9: mAb11008 (antibody, V domains shown)
VH: EVQLVESGGGLVQPGGSLRLSCAASGFTVSSNYMTWVRQAPGKGLEWVSVIYSGGSTFYADSVKGRFTISRHNSENTLYLQMNSLRAEDTAVYYCARDLAAAGTDYWGQGALVTVSS
VL: DIQLTQSPSFLSASVGDRVTITCWASQGISSYLAWYQQKPGKAPKLLIYAASTLQSGVPSRFSGSGSGTEFTLTISSLQPDDFATYYCQHLNSYLYTFGQGTKLEIK
B10: mAb10965 (antibody, V domains shown)
VH: EVQLVESGGGLIQPGGSLRLSCAASVFTVSYNYMSWVRQAPGKGLEWVSVIYSGGSTYYADSVKGRFTISRDNSKNTLYLQMNSLRAEDTAVYYCARALPGWGGSFEYFDYWGQGTLVTVSS
VL: not shown
B11: mAb10966 (antibody, V domains shown)
VH: EVQLVESGGGLVQPGGSLRLSCAASGLTVSSNYMSWVRQAPGKGLEWVSVIYSGGSTFYADSVKGRFTISRDNSKNTLYLQMNSLRPEDTAVYYCAREGRIAATGYGMDVWGQGTTVTVSS
VL: not shown
B12: mAb10971 (antibody, V domains shown)
VH: EVQLVESGGGLIQPGGSLRLSCAASGVTVSSNYMSWVRQAPGKGLEWVSVIYSGGSTFYSDSVKGRFSISRDNSKNTLYLQMNSLRAEDTAVYYCARDLYYYGMDVWGQGTTVTVSS
VL: DIQLTQSPSFLSASVGDRVTITCRASQGISTYLAWYQQKPGKAPKLLIYAASTLQSGVPSRFSGSGSGTEFTLTISSLQPEDFATYYCQQLDSYPGLTFGGGTKVEIKR
B13: mAb10957 (antibody, V domains shown)
VH: EVQLVESGGGLVQPGGSLRLSCAASGVTVSSNYMSWVRQAPGKGLEWVSVIYSGGSTFYADSVKGRFTISRDNSKNTLFLQMNSLRIEDTAVYYCARDLGPYGMDVWGQGTTVTVSS
VL: DIQLTQSPSFLSASVGDRVTITCRASQGISSYLAWYQQKPGKAPKLLIYAASTLQSGVPSRFSGSGSGTQFILTISSLQPEDFATYYCQQLNSYPGFTFGPGTKVDIKR
B14: mAb10956 (antibody, V domains shown)
VH: EVQLVESGGGLVQPGGSLRLSCAASGLTVSSNYMSWVRQAPGKGLEWVSVIYSGGSTFYADSVKGRFTISRDNSKNTLYLQMNSLRAEDTAVYYCARDLIKYGMDVWGQGTTVTVSS
VL: not shown
B15: mAb10964 (antibody, V domains shown)
VH: QVQLQESGPGLVKPSETLSLTCTVSGGSINNYYWIWIRQPPGKGLEWIGYIYHSGSTNYNPSLKSRVTISVDTSKNQFSLKVSSVTAADTAVYYCANMVRGVYEDDYWGQGTLVTVSS
VL: DIQMTQSPSSLSASVGDRVTITCRASQSISNYLNWYQQKPGKAPKLLIFAASSLRSGVPSRFSGSGSGTDFTLTISSLHPEDFATYYCQQNYNTPLTFGPGTKVDIKR
B16: mAb11004 (antibody, V domains shown)
VH: QVQLVESGGGVVQPGRSLRLSCVASGFTFSIYGMDWVRQAPGKGLEWVAVISYDGSNKYYADSVKGRFTISRDNSKNTLYLQMNSLRPEDTAVYYCAKDREAAADAFDIWGQGTMVTVSS
VL: DIQMTQSPSSVSASVGDRVTITCRASQGISSWLAWYQQKPGKAPKLLIYAASSLHSGVPSRFSGSGSGTDFTLTISSLQPEDFATYYCQQANSFRLTFGGGTKVEIK
B17: mAb10967 (antibody, V domains shown)
VH: EVQLVESGGGLVQPGGSLRLSCAASGFTVSSNYMSWVRQAPGKGLEWVSVIYPGGSTFYADSVKGRFTISRDNSKNTLYLQMNSLRAEDTAVYYCARDQRDFAWGQGTLVTVSS
VL: DIQMTQSPSSLSASVGDRVTITCQASQDISNYLNWYQQKPGKAPKLLIYDASNLETGVPSRFSGSGSGTDFTFTISGLQPEDIATYYCQQYDNLPPTFGQGTRLEIKR
B18: mAb10954 (antibody, V domains shown)
VH: EVQLVESGGGLVQPGGSLRLSCAASGITVSSNYMSWVRQAPGKGLEWVSLIYSGGSTYYADSVKGRFTISRDNSKNTLYLQMNSLRVEDTAVYYCARDHGMAAAGYNYWGQGTLVTVSS
VL: DIQMTQSPSSLSASVGDRVTITCQASQDINKYLNWYQQKPGKAPKLLIYDASNLETGVPSRFSGSGSGTDFTFTINSLQPEDFATYFCQQYDNLPPAFGQGTKVEIKR
B19: mAb10955 (antibody, V domains shown)
VH: EVQLVESGGGLVQPGGSLRVSCAASGFTVSRNYMSWVRQAPGKGLEWVSVIYSGGSTFYADSVKGRFTISRDNSKNTLYLQMNSLRAEDTAIYYCARYIPRFDPWGQGTLVTVSS
VL: DIQMTQSPSSLSASVGDRVTITCQASQDISNYLNWFQQKPGRAPKLLIYDASNLETGVPSRFSGSGSGTDFTFTISSLQPEDIATYYCQQYDNLPITFGQGTRLEIKR
B20: mAb11002 (antibody, V domains shown)
VH: EVQLVESGGGLVQPGGSLRLSCAASGFTVSSNYMSWVRQAPGKGLEWVSVIYSGGSTFYADSVKGRFTISRHNSKNTLYLQMNSLRAEDTAVYYCAREGYGMDVWGQGTTVTVSS
VL: not shown
B21: mAb10913 (antibody, V domains shown)
VH: EVQLVESGGGLVQPGGSLRLSCAASGFTFRNYEMNWVRQAPGKGLEWVSYITSSGSTMYYADSVKGRFTISRDNAKNSLYLQMNSLRAEDTAVYYCARDGFYYYYAMDVWGQGTTVTVSS
VL: QSVLTQPPSVSAAPGQKVTISCSGSSSNIGNNYVSWYQQLPGTAPKLLIYDNNKRPSGIPDRFSGSKSGTSATLGITGLQTGDEADYYCGTWDSSLSVGRVFGTGTKVTVLG
B22: mAb11010 (antibody, V domains shown)
VH: QVQLVESGGGVVQPGRSLRLSCAASGFTFSSYGMHWVRQAPGKGLEWVAVISYDGSYKYYADSVKGRFTISRDNSKNTLYLQMNSLRAEDTAVYYCAIDGGTVTTIFDYWGQGTLVTVSS
VL: not shown
B23: mAb10998 (antibody, V domains shown)
VH: EVQLVESGGGLVHPGGSLRLSCAASGLTVSSNYMSWVRQAPGKGLEWVSVIYSGGSTYYADSVKGRFTISRHNSKNTLFLQMNSLRAEDTAVYYCARDRPITGTTLDVWGQGTTVTVSS
VL: DIQMTQSPSSLFASVGDRVTITCRASQSISSYLNWYQQKPGKAPKLLIYAASSLQSGVPSRFSGSGSGTDFTLTISSLQPEDFAFYYCQQTYSTPPITFGQGTRLEIK
B24: mAb10914 (antibody, V domains shown)
VH: EVQLVESGGGLVQPGGSLRLSCAASGLIVSRNYMIWVRQAPGKGLEWVSVIYSGGSTFYADSVKGRFTISRHNSKNTLYLQMNSLRAEDTAVYYCARDLGTGGMDVWGQGTTVTVSS
VL: DIQLTQSPSFLSASVGDRVTITCWASQGISSYLAWYQQKPGKAPKLLIYAASTLQSGVPSRFSGSGSGTEFTLTISSLQPEDFATYYCQQLNSYPLTFGGGTKVEIKR

Values joined by “and” are separate entries in the source; they are usually repeats but may differ in a detail not shown here. Equal values may be shown once.

The target of the first assay is receptor binding domain (RBD) portion of the SARS-CoV-2 Spike protein (amino acids Arg319-Phe541) ex (SARS-CoV-2).
Test: not given
As a reminder, the IC50 is the concentration that inhibits the measured activity by half. Turning to B1, the IC50 stood at 0.321 nM.
Turning to B2, the IC50 is 0.433 nM and 0.507 nM.
B3 came in with an IC50 of 0.217 nM.
With B4, the IC50 came to 0.282 nM.
For B5, the IC50 was 0.338 nM and 0.139 nM.
On to B6, for which the IC50 came to 0.98 nM.
Same read-out and setting: then B7, with 0.149 nM and 0.184 nM.

The target of another assay is SARS-CoV-2 RBD-hFc (SARS-CoV-2). As to the kind of experiment: Luminex beads.
For the molecule B8, the binding result is reported as “binds”.
Still for that read-out and setting: then B9, with “binds”; and B10, with “binds”.
With B11, the binding result was “binds”.
Same read-out and setting: then B12, with “binds”.
As for B13, the binding result was “binds”.
As for B14, the binding result is listed as “binds”.
For B15, the binding result was “binds”.
Same read-out and setting: with B16 the entry was “binds”; with B17, “binds”.
With B18, the binding result is listed as “binds”.
Turning to B19, the binding result is “binds”.
For B20, the binding result is given as “binds”.
As to B21, the binding result is reported as “binds”.
Turning to B22, the binding result was “binds”.
Take B23: the binding result is “binds”.
On to B24, for which the binding result was “binds”.

For the origin of these results see patent US20240043504A1 (published 2024).
